Assay results as given in the domain aggregation screens of Martell et al. (2025).

experiment: soluble fraction after stress (log2 fold change); higher = more stays soluble; pooled small domains, quantitative proteomics; details: stress: pH 4
Method in brief: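 Aggregation propensity here comes from the fold change in the soluble amount of each small protein domain after acid stress, measured in pooled custom libraries by high-throughput quantitative proteomics. The acid stress was pH 4. On the log2 scale, higher values mean more of the domain stayed soluble.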

| Sequence | soluble fraction (log2) |
| --- | --- |
| HMEVNMEEKMEFVHSYIKTHKTFLFRQLLSESKSRTQVIVTFLVILELIKGGKISVTQENRTDDILINSL | -0.521 |
| HMPAVGGVVKGAVVSVGRNEVRLDIGGLAIGIIRGPELDKHVDLRIGDEVEATVITLDNEFGELELSL | -1.73 |
| HMNMVEESVKKSSQWAVFEPNTISTWVKIQAMIENYLYQKWKEGALAGAKPEHAFFVKVGLGETM | 0.0622 |
| HMNHYIGVDRAKEIALNHANLSETDVVFTKEKLENDDGGAEYEIEFHSGRTEYDYTIDAASGNIIEYDVDY | -0.17 |
| HMGMTDEELNREEERVVAELEAKDEEELTIYNEEDLTFEETLDLPEGSLMRDRENGMIYLKVLDIWMPY | -0.831 |
| HMSDLTEVIVKFSGDIQPIRQDLDAQVEILLKGYAIITLSPNKIGRLYSYPQIESIEIPKNLYI | -0.833 |
| HMGTPLYLLLAAEVRDRIATEQLAPHTAVPSERELAELHGVSRMTARQALALLESEGLVYRNPPRGTFVAE | -0.922 |
| HMRMRPNERQKRIIELLSFRRHETIGNFANEFGVSRDTIKRDIITLQEEYPIISERGYEGGISLPDGYYI | -0.0594 |
| HMKSNNPLDHVRVKQRGASWAYYFEKAKVDGKRRRGEGGGYATEQDARMAGVEAYNAYIGGGAK | 0.109 |
| HMRVDLVQRLARHGLSPRQSAVAGGVLRGLDNGEISRQLYIAEQTVKDHLHEIYHRLGVHTRTELLIKVLG | -0.359 |
| HMALSTRERMSFVLEVLKEKEFIPFVDLFSPEEGRAGVVVTFLALMELMKDSLIEIVQTKNFGEIHVRARL | -1.07 |
| HMNELTDKQILLFSNKLAHNIPFSSKYSKPGESYEEFAERLANELIDPQKVKLYKPYLEEVGFK | 0.112 |
| HMRISMRDQVYEIIKNRILSREYSLGEPINIVHLSKELGISNTPIREALSQLETERLITINSNQKYHVT | -0.0135 |
| HMSVDIWTGAQTGNIEAVKQHLADGVDVNSKSDIGRTALDVAIAFKQPLITDLLRKHGGKTRDELKAAE | -0.397 |
| HMDIINLADNIARLRRRRQITQEELADYLGVTKAAVSKWENRQTMPDILLLPRLAGLFEVTIDELVGY | -1.72 |
| HMTVKRNLVQEILRLKFRHPENFMPNRAFYQEVGINQMRWWDIFYGRKNINQEEYIALSKYF | -0.352 |
| HMKPDDDMLLKILTKLFIQKQFVINSKDIFQYILKNTNRTYENIINIVNRLDTLSIEKKRQLTIPLIKEI | -0.555 |
| HMNTDALIGKTGYVTEIVGERHGRIQFSGGEWSARTEGVSIPVGAEVRVDRIDGATAVVSAV | 0.22 |
| HMREIEVNYAAGDSVRVIDGPLAGFIGVVSSVEPDKNKVNVTVSMFGRETPVELELDQVETLD | -0.669 |
| HMQPVLSDAEVNDLKNIAGGERGYNQLMDWAGNNLTAQDAKSYDDVLATGNKAAISFAIKALMGQYEDAN | -0.453 |
| HMKSKYLIKIEGDFDEKDLYKYLINVSIVNHTKNNGFTEVEFYNDNYSLQQNFLKSMLNDGIIITEFKKVE | -0.558 |
| HMVDQKLIQASAEHSGIRIDRFLSEQLPEHSRSYIQKLIKDGQVSIGGKAVKSNYKIAGTEEISLLIPDQ | -0.224 |
| HMASVLTGMLGRVTGELAPKGIVMVGNETWTAVSEDDSVIRIGEPVEVRSVEGLILTVFRRID | -1.55 |
| HMSGIQNNFITRLKKVLAPTIGIAEEISDLLNISIDSAYRRIRGETDFTFEEIYIITRKHKISIDEIYG | -2.14 |
| HMHEYSRIYQQQWWDNATGADAYHVIHSARSRAAQDPEAARALEYLEEQFRIRYGVRTEDFLGYLHD | -1.31 |
| HMETGKLIKELRLKKGMTQEELADKTEVSSRTIQRIENGEVDPRAYTLQMIARALEVDYSLFME | -0.683 |

| Sequence | soluble fraction (log2) |
| --- | --- |
| HMPLPFSPVMFVGTKSGAQTDLDGNYKIETYYSSDSLKVVVLGYAPLAKKVKQGTTSVVNFELSAAS | 0.104 |
| HMQQEAVSGKLLQLDLAKKEGRLSTDLGREVLFHIPKPELFVHLSVGQRIIIKLDAGQEAVGV | 0.0773 |
| HMSWAGRRSLAALEARYRDETGISNLKIKHNGVLGYHIEVPSKSADKLMAPDSGFTHRQTLAGAVR | 0.00623 |
| HMQEPVYRPVFPGMTDADRQSAMEALKEGGFSPRLNRQTGQLEVDASGYHEAKIYLASQGIPAE | 0.22 |
| HMTQNSAITNRVLYMQRTLRQYGYAVPESGNFDRTTRAHAAEFLYNATGLPVRENQSVQEFYRAFQRVQG | 0.203 |
| HMLKEGIKEKINQLQVYADKNDNIIWYDRVVDILSDKDDSVTDEMIEAAIRTLEEAGISVERKQ | -1.04 |
| HMTTMYKSDVKGINYDVKAKSWFLRITFNGNQIPIGHFKTEEDAINVKQQLIPYIESKDYTSILAVKAKYS | ≥ 0.43 |
| HMDRKFFFNEQYEDYINSDLKVKFMNDSGSKKSFQGELTKVTPSDLFLESEKESVKVPFSSIIQANLI | -0.591 |
| HMLYITEIQKKIMDAFLVVANESNSGTRITMNEIANKVRMTPQAIYRKHFKSVIEISDTIRD | -1.17 |
| HMVYLPSSIKNIPTKYGEMMVANFKMDELQANSKNGWVSMVISERREPSEKGATHYAYVNTY | 0.106 |
| HMVGDLPPQELRVFELIGDGLSNREIADEMILAEKTIKNYVTSLLQKLGMQRRTEAAAFAARLDER | -0.607 |
| HMSHISLGQRYKIEGYLQINLKRTQIAKEIGLPKKTVNQEIKRNSNPQTGIYKAEEAHQLYLDRMQKKRK | 0.426 |
| HMSFDGFSDRLKSVLNSGKYTQKEAAEKINISEYSFTKYLNGRIPQTEILYKIARLYNKSMEWLLTGKDPI | -0.158 |
| HMPNPALESARPAFEAFLSRFSDGEAMRGPAWGLWSLLHRKGNAPTASHAAGRDGMGVLAFLRHWQWG | -0.551 |
| HMGELDFYEEMRDDYLTGKIWNVGEIVEAKGMIGEIVRKGTNYISFVTDDNKVHKAWLHEIKL | -1.37 |
| HMINYSQKQLIAIQDELSKRFQALENESTKNNVTGFGVGLHYIDIDLIVNTPEKQKEFREKIMDSPAFRFN | 0.106 |
| HMSAITLDQARAIALDHAGISEGDATFVKEQTGTSSYEIEFYSGSNEYDYEIDKATGAILNVDR | 0.22 |
| HMQTSETVYTTDKVNVRAGADTSSDKLGSVEKGTSLTRTGTDGDWSIIDYNGTTGYIKSEYLSATAPE | 0.316 |
| HMNQKKFIQADYEDRLFDHLAFEVKDMEKIISMMRREKFTITDEPFRLSPTGSLIAFVEDPDRTLIELIER | -0.522 |
| HMSGPAEDLLAIEGMDKELAYELAARGIRTRDELADQSLDELEAVPGLDPVRAGQLIMAARAHLFENAGQ | -0.355 |
| HMGIAKYRQVTEWIQNRIATGELNRGDQIESENDISRTFGISRQTVRHALGLLEQQGILTRIQGRGTFVRD | 0.309 |
| HMNPHIQFWSLLRRQPDYNSAYKDELKAMFVWQWSGEKTESLNEFYKTDPYRYKSMLMDMRNRAL | -0.354 |
| HMSGDYRPLYPNLPESEKSEAFNLLAGSALPARLDDRTGDIMVPADRYYEARMILANAGFAD | 0.053 |
| HMGPKPVDMSPIPEGQRNQVLHDWMYGRAANHPENWGQIRSDALERGLKSGLKADEIHAITGSVARALGLE | 0.0794 |
| HMEGMSIYVTVNGDMVHLTGKMSYVFVDVFEHIDFDLSKPQGSGIVTKLNGRDAQYMEEIRSGDMIEIYWR | -0.669 |
| HMHPKTPDELLALMSEEQRGQIEQLAKLVLMAVSYSGASYYDAVTTMYPRMSEERRRIITHVLNTASP | -0.825 |

| Sequence | soluble fraction (log2) |
| --- | --- |
| HMGVGERIKARRKEIGLSAEQVAKELGVSPATVYRYESNDIMNMRIDKLEPIAKALHTTPAYLMGWE | 0.155 |
| HMVVVVELTENEKAVQDVLTKNEGSLEISDLKTKLELSGKQWDKALKGLAKHGITQVAKVDGVVTVSL | -1.4 |
| HMGKEDISQINKLYQNQILDYETYIDTLNSFNIDTKSKDFKNLLDLFIKKSISFETFNKGIINIHNKS | -1.01 |
| HMHAEEIAREAKEALERGEEFHFAGITVRSEEALEFLEEWLRKFF | -1.23 |
| HMDKENVLQLQKDLLRLSVNALEKRYYQFSDILLLKYILPLVPKEISIDDQSRLRSLLSGIN | -0.754 |
| HMEVLEGFIEDIKFKSEESGYTVAKLNNRNKSIVIVGTMPFISEGQHVKLTGEWKIHQKFGAQFNVKELEE | -1.37 |
| HMAPEPFILSVDADGKYYIDDLEKTKQEILIYATALYQEKPTTDFLVRGDKSAAYNDVLQAMVVLKE | 0.171 |
| HMKTGHLPVTVIIDGRIISDNLYKTGLSNNWLADQLRKNSIKSSEDVFFAYLNPERKFIYQLRSNS | -0.098 |
| HMNSSTYIVTFKVDGEEDIVETYQWGDRIIVPEVEAKDDYVFIGWDAQIPEFMPERNLEFTAI | -1.67 |
| HMEKIIGQIQINQRGNGYVIVPNVKDDIFVKRENLNSARQGDRVAVQLLSRPNQKPEGLVQEVLERGQ | 0.071 |
| HMSDPVKQVAMRILDLREISDYTVDKMAEVLNVPVEEYRKYESGEVDMPISFLVKIGEVFHVDMTELLTG | -0.679 |
| HMNPNSIDEKLKLLSNREKEVAILVLKKLSYFEISEQLNITIRTVKAHTKNIYEKFNVSNRLAFLLLFN | -0.209 |
| HMLYETLKKGDQGTSVKTLQEKLKALGYLTGAADGKYGAGTETAVKSFQKAAGLTETGTADPETLSAVYAA | 0.0393 |
| HMETISEIWRLIDGLDEIYRVPLTMYYRSNRSVREIAETLGLSARTVETRIYRARRMIREKWSN | -0.679 |
| HMGSPVTAVMNRVLNETERQIVTLHVISGFKHREIAELLEKPVGTVLWTYNNALGKMRKAMQRE | -0.603 |
| HMSLPTSDWKRALSLFDEALSLPPDARDAWLAHTIAREPAVSPLLQKLLGAHRRVETNDILATLPR | -0.274 |
| HMVFRFELQPSSATPLYRQIVEQVTRAVAAGVLRDGEELPSVRAVAQEYVINPMTVSKAYSLLEAQSI | -0.34 |
| HMSADISIGYNIPKGSVTVSAGGRTLQEGIDYDINYDLGTIKITNQAILNAGLPVQVNFENNAS | -0.212 |
| HMNKTVKIPNVSNLSREDAESVLKENGISVNSEVKQIESDTIEKGKVVKTDPSIGTSVKKGRSITIYVSSG | 0.134 |
| HMDLDIRDDIYRANIPNDYKLQQMQNNIDYDKVLTGYYNNRPEANVIANRTLQLANDVYNRD | -0.296 |
| HMDGKPSLIISNGQINYKEMVKLRYSLEDLLFQLRQNSIKSIEEVEYAFLESNGKLSIFPYNFL | -1.65 |
| HMVFQTAAEKAYEIISKKIMKGEYEPGMRLVRRQLAQELGVSPIPILEAMKRLEQDGLIEYKAHWGSIVTI | -0.56 |
| HMSGMNSDHRVNGNIHTFLIQHDLGTKWSVFTEQLLKQVFRSFLPDKELNFQTTDSTVILKVSLGSDFNEH | -0.19 |
| HMAPPPLAGAREALREQIRRGSLSARRGFDAYADALGLPAGTRGAHPIFAALQRLDYPQALRLLDQEPT | -0.108 |
